Laboratory results published in PMC6781449 (The Journal of Cell Biology, 2019).

Target: T1, GST-leupaxin FL (mouse, UniProt Q99N69 1-386)
T1 sequence (looked up): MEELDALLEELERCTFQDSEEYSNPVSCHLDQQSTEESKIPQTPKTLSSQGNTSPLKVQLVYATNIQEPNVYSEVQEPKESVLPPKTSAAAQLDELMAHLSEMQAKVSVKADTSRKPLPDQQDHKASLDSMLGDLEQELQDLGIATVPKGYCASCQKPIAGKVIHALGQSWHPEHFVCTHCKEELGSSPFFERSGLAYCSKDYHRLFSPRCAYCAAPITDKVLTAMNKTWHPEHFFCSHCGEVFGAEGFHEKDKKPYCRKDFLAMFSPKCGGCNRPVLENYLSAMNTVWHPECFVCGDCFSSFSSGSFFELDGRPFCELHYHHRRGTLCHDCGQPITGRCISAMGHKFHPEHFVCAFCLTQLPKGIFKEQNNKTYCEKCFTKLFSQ
Assay: pull-down

B1: HisSUMO-tagged kindlin-3 F0 domain (domain or fragment, UniProt Q8K1B8 1-97, looked up)
chain: MAGMKTASGDYIDSSWELRVFVGEEDPEAQSVTLRVTGESHIGGVLLKIVEEINRKQDWSDHAIWWEQKRQWLLQTHWTLDKYGILADARLFFGPQH
- binding result: binds
